# From FireProtDB
# Values joined by “and” are separate entries in the source; they are usually repeats but may differ in a detail not shown here. Equal entries are not always repeated.
# B1: Repressor protein cI wild type, P03034 (protein)
# chain: MSTKKKPLTQEQLEDARRLKAIYEKKKNELGLSQESVADKMGMGQSGVGALFNGINALNAYNAALLAKILKVSVEEFSPSIAREIYEMYEAVSMQPSLRSEYEYPVFSHVQAGMFSPELRTFTKGDAERWVSTTKKASDSAFWLEVEGNSMTAPTGSKPSFPDGMLILVDPEQAVEPGDFCIARLGGDEFTFKKLIRDSGQVFLQPLNPQYPMIPCNESCSVVGKVIASQWPEETFG
# B2: Protein CutA wild type, O60888 (protein)
# chain: MSGGRAPAVLLGGVASLLLSFVWMPALLPVASRLLLLPRVLLTMASGSPPTQPSPASDSGSGYVPGSVSAAFVTCPNEKVAKEIARAVVEKRLAACVNLIPQITSIYEWKGKIEEDSEVLMMIKTQSSLVPALTDFVRSVHPYEVAEVIALPVEQGNFPYLQWVRQVTESVSDSITVLP
# B3: Gamma-crystallin D wild type, P07320 (protein)
# chain: MGKITLYEDRGFQGRHYECSSDHPNLQPYLSRCNSARVDSGCWMLYEQPNYSGLQYFLRRGDYADHQQWMGLSDSVRSCRLIPHSGSHRIRLYEREDYRGQMIEFTEDCSCLQDRFRFNEIHSLNVLEGSWVLYELSNYRGRQYLLMPGDYRRYQDWGATNARVGSLRRVIDFS
# Settings: whole UniProt chain shown
# [1] = Escherichia phage lambda, pH 5.6, 37 °C, Urea, CD, Acetic acid(deuterated) 10 mM, NaCl 100 mM, reversible: yes
# [2] = Escherichia phage lambda, pH 6.6, 20 °C, GdnHCl, CD, Potassium phosphate 50 mM, KCl 100 mM, reversible: yes
# [3] = Escherichia phage lambda, pH 7, 5 °C, GdnHCl, CD, Potassium phosphate 50 mM, KCl 100 mM, reversible: yes (70-100%)
# [4] = Escherichia phage lambda, pH 7, 25 °C, GdnHCl, CD, Potassium phosphate 50 mM, KCl 100 mM, reversible: yes (70-100%)
# [5] = Escherichia phage lambda, pH 7, Thermal, DSC, Bis-Tris 10 mM, KCl 200 mM, reversible: yes (88%)
# [6] = Escherichia phage lambda, pH 7, Thermal, DSC, Bis-Tris 10 mM, KCl 200 mM, reversible: yes
# [7] = Escherichia phage lambda, pH 8, Thermal, CD, KD2PO4 20 mM, NaCl 100 mM, reversible: yes (>90%)
# [8] = Escherichia phage lambda, pH 8, Thermal, DSC, Potassium phosphate 10 mM, KCl 200 mM, reversible: no
# [9] = Escherichia phage lambda, pH 8, Thermal, DSC, Potassium phosphate 10 mM, KCl 200 mM, reversible: yes (95%)
# [10] = Homo sapiens, pH 7, Thermal, DSC, Potassium phosphate buffer, NaCl, reversible: yes
protein,measurement,setting,value
B1,denaturant m value,[1],1.23 kcal/mol/M
same,unfolding free energy,[1],3.27 kcal/mol
same,denaturant m value,[2],2.3 kcal/mol/M
same,unfolding free energy,[2],5.2 kcal/mol
same,denaturant m value,[3],2.5 kcal/mol/M
same,denaturant midpoint (higher = more stable),[3],2.52 M
same,unfolding free energy,[3],6 kcal/mol
same,denaturant m value,[4],2.4 kcal/mol/M
same,denaturant midpoint (higher = more stable),[4],2.03 M
same,unfolding free energy,[4],4.8 kcal/mol
same,unfolding free energy,"Escherichia phage lambda, pH 7, 25 °C, Urea, CD, Sodium phosphate 20 mM, NaCl 100 mM, reversible: Yes",2.4 kcal/mol
same,Tm,"Escherichia phage lambda, pH 7, Thermal, CD, Potassium phosphate 10 mM, KCl 100 mM",54 °C
same,Tm,"Escherichia phage lambda, pH 7, Thermal, CD, Potassium phosphate 50 mM, KCl 100 mM, reversible: yes (60-75%)",55 °C
same,Tm,"Escherichia phage lambda, pH 7, Thermal, CD, Potassium phosphate 50 mM, KCl 100 mM, reversible: yes (70-100%)",55.7 °C
same,Tm,"Escherichia phage lambda, pH 7, Thermal, CD, Potassium phosphate 50 mM, KCl 100 mM",57 °C
same,Tm,[5],73.3 °C
same,unfolding enthalpy (calorimetric),[5],82.4 kcal/mol
same,unfolding enthalpy (van 't Hoff),[5],348 kcal/mol
same,Tm,[6],50.7 °C
same,unfolding enthalpy (calorimetric),[6],50.9 kcal/mol
same,unfolding enthalpy (van 't Hoff),[6],332 kcal/mol
same,unfolding free energy,"Escherichia phage lambda, pH 7.5, 22 °C, Urea, CD, Potassium phosphate 10 mM, KCl 50 mM",0 kcal/mol
same,Tm,"Escherichia phage lambda, pH 7.5, Thermal, CD, Potassium phosphate 10 mM, KCl 50 mM",49 °C
same,unfolding free energy,"Escherichia phage lambda, pH 8, 13 °C, Urea, CD, KD2PO4 20 mM, NaCl 100 mM, reversible: yes (>90%)",4.6 kcal/mol
same,unfolding free energy,"Escherichia phage lambda, pH 8, 25 °C, Urea, CD, KD2PO4 20 mM, NaCl 100 mM, reversible: yes (>90%)",4.3 kcal/mol
same,unfolding free energy,"Escherichia phage lambda, pH 8, 25 °C, Urea, Fluorescence, Potassium phosphate 0.1 M, reversible: yes",2.09 kcal/mol and 1 kcal/mol
same,unfolding free energy,"Escherichia phage lambda, pH 8, 37 °C, Urea, CD, Potassium phosphate 4 mM, NaCl 20 mM",0.86 kcal/mol
same,Tm,[7],57.2 °C
same,unfolding enthalpy (van 't Hoff),[7],68 kcal/mol
same,Tm,[8],53.4 °C and 51.5 °C
same,unfolding enthalpy (calorimetric),[8],65.5 kcal/mol and 65 kcal/mol
same,unfolding enthalpy (van 't Hoff),[8],69.3 kcal/mol
same,Tm,[9],53.9 °C
same,unfolding enthalpy (calorimetric),[9],53.4 kcal/mol
same,unfolding enthalpy (van 't Hoff),[9],79.8 kcal/mol
B2,Tm,[10],96.4 °C
same,unfolding enthalpy (calorimetric),[10],284 kcal/mol
same,unfolding free energy,[10],0 kcal/mol
same,denaturant midpoint (higher = more stable),"Homo sapiens, pH 8, 37 °C, GdnHCl, CD, Tris-HCl buffer, NaCl, transition: 2, reversible: yes",2.38 M
B3,denaturant midpoint (higher = more stable),"Homo sapiens, pH 7, 25 °C, GdnHCl, Fluorescence, NaPO4 10 mM, reversible: yes",3.7 M
same,denaturant midpoint (higher = more stable),"Homo sapiens, pH 7, 37 °C, GdnHCl, Fluorescence, NaPO4 10 mM, reversible: yes",2.7 M
same,Tm,"Homo sapiens, pH 7, Thermal, ANS fluorescence, PBS, transition: 2, reversible: yes",76.6 °C
same,Tm,"Homo sapiens, pH 7, Thermal, CD, PBS, transition: 2, reversible: yes",80 °C
